# Test results reported in US20100216196A1 (AJINOMOTO, published 2010).
# T1: DsbA protein of Escherichia coli (protein encoded by the dsbA gene) (Escherichia coli, UniProt P0AEG4 20-208, free cysteine thiols labelled with AMS (4-acetamido-4'-maleimidyl-stilbene-2,2'-disulfonate) before electrophoresis)
# T1 construct: Endogenous periplasmic DsbA of E. coli BW25113, detected in cell lysates; also called disulfide oxidoreductase
# T1 sequence: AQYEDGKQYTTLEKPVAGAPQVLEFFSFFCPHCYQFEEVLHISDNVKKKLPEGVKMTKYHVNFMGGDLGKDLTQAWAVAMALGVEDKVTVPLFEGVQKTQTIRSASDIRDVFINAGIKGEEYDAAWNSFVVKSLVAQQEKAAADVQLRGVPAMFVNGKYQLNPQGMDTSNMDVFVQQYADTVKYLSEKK
# B1: DsbB (enzyme)
# chain: MLRFLNQCSQGRGAWLLMAFTALALELTALWFQHVMLLKPCVLCIYERCALFGVLGAALIGAIAPKTPLRYVAMVIWLYSAFRGVQLTYEHTMLQLYPSPFATCDFMVRFPEWLPLDKWVPQVFVASGDCAERQWDFLGLEMPQWLLGIFIAYLIVAVLVVISQPFKAKKRDLFGR
# notes: Endogenous protein in the wild-type strain, seen only as the DsbA-DsbB complex band on the anti-DsbA Western blot; also called intracellular membrane protein DsbB
# Biological target: T1, DsbA protein of Escherichia coli …
# Assay: AMS modification, non-reducing SDS-PAGE and Western blot with anti-DsbA serum; wild-type E. coli BW25113 exposed to 5 mM cysteine
binder,measurement,value
B1,binding result,binds
